The record followed here is PMC9489553, “Biochemical and clinical studies of putative allergens to assess what distinguishes them from other non-allergenic proteins in the same family” (Transgenic Research, 2022).

Data set [1] deals with the molecule itself. Kind of data set: crystal structure; ChMDH with 5 mM NADP+, hanging drop at 4 °C, 25% PEG-1500, sodium propionate/sodium cacodylate/BIS-TRIS propane pH 7.0; 2.04 Å.
Data set [2] concerns the molecule itself. Kind of data set: crystal structure; ChALDH apoenzyme, hanging drop at 4 °C, 20% PEG-100, 100 mM sodium/potassium phosphate pH 6.2, 200 mM NaCl; 3.18 Å.

B1: Cladosporium herbarum mannitol dehydrogenase (enzyme)
chain: MPGQQATKHESLLDQLSLKGKVVVVTGASGPKGMGIEAARGCAEMGAAVAITYASRAQGAEENVKELEKTYGIKAKAYKCQVDSYESCEKLVKDVVADFGQIDAFIANAGATADSGILDGSVEAWNHVVQVDLNGTFHCAKAVGHHFKERGTGSLVITASMSGHIANFPQEQTSYNVAKAGCIHMARSLANEWRDFARVNSISPGYIDTGLSDFVPKETQQLWHSMIPMGRDGLAKELKGAYVYFASDASTYTTGADLLIDGGYTTR
notes: codon-optimised synthetic gene in pET-28a; Crystallised in complex with NADP+; also called ChMDH; C. herbarum MDH; source: E. coli BL21 (DE3), purified (Ni-NTA, size-exclusion chromatography); not shown: His-tag, N-terminal, cleaved
For the protein B1, the stoichiometry N (commonly the number of molecules, sites or subunits per partner or assembly) in data set [1] was 4.

B2: Cladosporium herbarum (aka Davidiella tassiana) aldehyde dehydrogenase (enzyme)
chain: MTSVQLETPHSGKYEQPTGLFINNEFVKGQEGKTFDVINPSDESVITQVHEATEKDVDIAVAAARKAFEGSWRQETPENRGKLLNNLANLFEKNIDLLAAVESLDNGKAISMAKGDISMCVGCLRYYGGWADKITGKVIDTTPDTFNYVKKEPIGVCGQIIPWNFPLLMWAWKIGPAIACGNTVVLKTAEQTPLGGLVAASLVKEAGFPPGVINVISGFGKVAGAALSSHMDVDKVAFTGSTVVGRTILKAAASSNLKKVTLELGGKSPNIVFEDADIDNAISWVNFGIFFNHGQCCCAGSRVYVQESIYDKFVQKFKERAQKNVVGDPFAADTFQGPQVSKVQFDRIMEYIQAGKDAGATVETGGKRKGDKGYFIEPTIFSNVTEDMKIVKEEIFGPVCSIAKFKTKEDAIKLGNASTYGLAAAVHTKNLNTAIEVSNALKAGTVWVNTYNTLHHQMPFGGYKESGIGRELGEDALANYTQTKTVSIRLGDALFG
notes: aldehyde dehydrogenase of Cladosporium herbarum (aka Davidiella tassiana), GenBank CAA55072.2; codon-optimised synthetic gene in pET-28a; Apoenzyme in the crystal; also called ChALDH; C. herbarum ALDH; source: E. coli BL21 (DE3), purified (Ni-NTA, size-exclusion chromatography); not shown: His-tag, N-terminal, cleaved
As to B2, the “stoichiometry N” value in data set [2] came out at 4.
